Data taken from the RNAGym collection of RNA variant scans (doi:10.1021/acssynbio.7b00057).

B1: Pistol ribozyme (parent)
chain: GGGUCGUUGUUCCAUAAUCGCGUGGAUAUGGCACGCAAGUUUCUACCGGGCACCGUAAAUGUCCGACUGGAGCCGUUCGGGCGGCUAUAAACAGACCUCAGGCCCGAAGCGUGGCGGCACCUGCCGCCGGUGGUAAAAAAGAUCGGAAGAGCACACGUCU

Variants of: B1
Experiment: aptazyme ON/OFF ratio, guanine; higher = stronger switching; co-transcriptional cleavage with and without guanine

Row | Variant | aptazyme ON/OFF ratio
1 | U7G U8A U10G U11C C12G C13A | 1.4
2 | U7G U8A U10G U11C C12G C13U | 1.25
3 | U7G U8A U10G U11C C12G C13G | 1.26
4 | U7G U8A U11A C12U C13A | 1.31
5 | U7G U8A U11A C12U C13G | 1.26
6 | U7G U8A U11A C12U C13U | 1.36
7 | U7G U8A U10G C13A | 1.3
8 | U7G U8A U10G C13G | 1.32
9 | U7G U8A U10G C13U | 1.29
10 | U7G U8C C12A C13A | 1.13
11 | U7G U8A U10G U11C C12A C13U | 1.2
12 | U7G U8A U10G U11C C12A C13A | 1.43
13 | U7G U8A U10G U11C C12A C13G | 1.17
14 | U7G U8A U10G U11G C13A | 1.28
15 | U7G U8A U10G U11G C13G | 1.43
16 | U7G U8A U10G U11G C13U | 1.42
17 | U7G U8C | 1.32
18 | U7G U8A U10C C12U C13U | 1.32
19 | U7G U8A U10G U11C C12G | 1.02
20 | U7G U8A U10G U11C C12A | 1.48
21 | U7G U8A U10G U11C C12U | 1.27
22 | U7G U8A U10G C12A C13G | 1.11
23 | U7G U8A U10G C12A C13U | 1.15
24 | U7G U8A U10G C12A C13A | 1.58

Row | Variant | aptazyme ON/OFF ratio
25 | U7G U8C C12A | 1.05
26 | U7G U8A U11G | 1.24
27 | U7G U8A U11C | 2.05
28 | U7G U8A U11A | 2.25
29 | U7G U8A U11C C13A | 1.32
30 | U7G U8A U11C C13G | 1.11
31 | U7G U8A U11C C13U | 1.2
32 | U7G U8A U10C U11C C12U C13G | 1.25
33 | U7G U8A U10C U11C C12U C13U | 1.13
34 | U7G U8A U10C U11C C12U C13A | 1.14
35 | U7G U8A U10C U11A C12G | 1.54
36 | U7G U8A U10C U11A C12A | 1.32
37 | U7G U8A U10C U11A C12U | 1.42
38 | U7G U8A U10C U11A | 2.3
39 | U7G U8A U10C U11C | 1.11
40 | U7G U8A U10C U11G | 2.09
41 | U7G U8A U11G C12A | 1.45
42 | U7G U8A U11G C12U | 1.25
43 | U7G U8A U11G C12G | 1.33
44 | U7G U8A U11G C13U | 1.21
45 | U7G U8A U11G C13A | 1.2
46 | U7G U8A U11G C13G | 1.15
47 | U7G U8A U10C U11C C12A | 1.46
48 | U7G U8A U10C U11C C12G | 1.29

Row | Variant | aptazyme ON/OFF ratio
49 | U7G U8A U10C U11C C12U | 1.31
50 | U7G U8A U10C U11A C13U | 1.44
51 | U7G U8A U10C U11A C13A | 1.39
52 | U7G U8A U10C U11A C13G | 1.23
53 | U7G U8A U10G U11G C12A C13A | 1.16
54 | U7G U8A U10G U11G C12A C13U | 1.73
55 | U7G U8A U10G U11G C12A C13G | 1.38
56 | U7G U8A U10G U11G C12G | 1.5
57 | U7G U8A U10G U11G C12A | 1.3
58 | U7G U8A U10G U11G C12U | 1.26
59 | U7G U8A U10C U11A C12U C13U | 1.34
60 | U7G U8A U10C U11A C12U C13A | 1.3
61 | U7G U8A U10C U11A C12U C13G | 1.19
62 | U7G U8A U10C U11A C12G C13G | 1.22
63 | U7G U8A U10C U11A C12G C13U | 1.38
64 | U7G U8A U10C U11A C12G C13A | 1.25
65 | U7G U8A U11C C12A C13G | 1.36
66 | U7G U8A U11C C12A C13A | 1.23
67 | U7G U8A U11C C12A C13U | 1.46
68 | U7G U8A U11C C12G C13A | 1.22
69 | U7G U8A U11C C12G C13U | 1.32
70 | U7G U8A U11C C12G C13G | 1.2
71 | U7G U8A U10G U11A C13A | 1.18
72 | U7G U8A U10G U11A C13G | 1.23

Row | Variant | aptazyme ON/OFF ratio
73 | U7G U8A U10G U11A C13U | 1.4
74 | U7G U8A U11A C13U | 1.4
75 | U7G U8A U11A C13A | 1.45
76 | U7G U8A U11A C13G | 1.15
77 | U7G U8A U10G U11C C12U C13A | 1.46
78 | U7G U8A U10G U11C C12U C13G | 1.52
79 | U7G U8A U10G U11C C12U C13U | 1.1
80 | U7G U8A U10C U11C C13A | 1.05
81 | U7G U8A U10C U11C C13G | 1.05
82 | U7G U8A U10C U11C C13U | 1.01
83 | U7G U8A U10C C13G | 1.09
84 | U7G U8A U10C C13U | 1.49
85 | U7G U8A U10C C13A | 1.23
86 | U7G U8A U11A C12U | 1.43
87 | U7G U8A U11A C12A | 1.25
88 | U7G U8A U11A C12G | 1.22
89 | U7G U8A U10G U11C C13G | 1.16
90 | U7G U8A U10G U11C C13A | 1.21
91 | U7G U8A U10G U11C C13U | 1.5
92 | U7G U8A U10G | 1.28
93 | U7G U8A U11A C12A C13G | 1.24
94 | U7G U8A U11A C12A C13U | 1.39
95 | U7G U8A U11A C12A C13A | 1.35
96 | U7G U8A U10G U11A C12G C13U | 1.23

Row | Variant | aptazyme ON/OFF ratio
97 | U7G U8A U10G U11A C12G C13G | 1.25
98 | U7G U8A U10G U11A C12G C13A | 1.11
99 | U7G U8A U10C U11G C12A C13G | 1.19
100 | U7G U8A U10C U11G C12A C13A | 1.19
101 | U7G U8A U10C U11G C12A C13U | 1.37
102 | U7G U8A U10G U11A | 2.15
103 | U7G U8A U10G U11G | 1.59
104 | U7G U8A U10G U11C | 2.11
105 | U7G U8A U10G U11A C12G | 1.43
106 | U7G U8A U10G U11A C12A | 1.16
107 | U7G U8A U10G U11A C12U | 1.23
108 | U7G U8A U10C U11C C12A C13G | 1.16
109 | U7G U8A U10C U11C C12A C13A | 1.2
110 | U7G U8A U10C U11C C12A C13U | 1.23
111 | U7G U8A U11C C12A | 1.29
112 | U7G U8A U11C C12G | 1.24
113 | U7G U8A U11C C12U | 1.41
114 | U7G U8A U10G U11G C12G C13U | 1.7
115 | U7G U8A U10G U11G C12G C13A | 1.15
116 | U7G U8A U10G U11G C12G C13G | 0.981
117 | U7G U8A U10G C12G C13A | 1.25
118 | U7G U8A U10G C12G C13G | 1.18
119 | U7G U8A U10G C12G C13U | 1.27
120 | U7G U8A U10C U11C C12G C13A | 1.32

Row | Variant | aptazyme ON/OFF ratio
121 | U7G U8A U10C U11C C12G C13G | 1.06
122 | U7G U8A U10C U11C C12G C13U | 1.3
123 | U7G U8A U10C U11A C12A C13A | 1.49
124 | U7G U8A U10C U11A C12A C13U | 1.39
125 | U7G U8A U10C U11A C12A C13G | 1.23
126 | U7G U8A U10C U11G C13A | 1.34
127 | U7G U8A U10C U11G C13U | 1.41
128 | U7G U8A U10C U11G C13G | 1.26
129 | U7G U8A U10G U11G C12U C13A | 1.44
130 | U7G U8A U10G U11G C12U C13G | 1.16
131 | U7G U8A U10G U11G C12U C13U | 1.65
132 | U7G U8A U11A C12G C13A | 1.08
133 | U7G U8A U11A C12G C13U | 1.21
134 | U7G U8A U11A C12G C13G | 1.18
135 | U7G U8A U11G C12G C13A | 1.16
136 | U7G U8A U11G C12G C13U | 1.4
137 | U7G U8A U11G C12G C13G | 1.32
138 | U7G U8A U10G U11A C12A C13G | 1.15
139 | U7G U8A U10G U11A C12A C13A | 1.47
140 | U7G U8A U10G U11A C12A C13U | 1.12
141 | U7G U8A U11G C12A C13A | 1.24
142 | U7G U8A U11G C12A C13U | 1.34
143 | U7G U8A U11G C12A C13G | 1.37
144 | U7G U8A U10C U11G C12U C13U | 1.42

Row | Variant | aptazyme ON/OFF ratio
145 | U7G U8A U10C U11G C12U C13A | 1.2
146 | U7G U8A U10C U11G C12U C13G | 1.29
147 | U7G U8A U10C U11G C12G C13U | 1.05
148 | U7G U8A U10C U11G C12G C13A | 1.26
149 | U7G U8A U10C U11G C12G C13G | 1.11
150 | U7G U8A U10C U11G C12U | 1.32
151 | U7G U8A U10C U11G C12G | 1.49
152 | U7G U8A U10C U11G C12A | 1.27
153 | U7G U8A U11G C12U C13G | 1.26
154 | U7G U8A U11G C12U C13A | 1.34
155 | U7G U8A U11G C12U C13U | 1.17
156 | U7G U8A U10G U11A C12U C13U | 1.1
157 | U7G U8A U10G U11A C12U C13G | 1.37
158 | U7G U8A U10G U11A C12U C13A | 1.37
159 | U7G U8A U10G C12A | 1.03
160 | U7G U8A U10G C12G | 1.13
161 | U7G U8A U10G C12U | 1.17
162 | U7G U8A U10G C12U C13G | 1.54
163 | U7G U8A U10G C12U C13A | 1.6
164 | U7G U8A U10G C12U C13U | 1.12
165 | U7G U8A U11C C12U C13G | 1.09
166 | U7G U8A U11C C12U C13A | 1.32
167 | U7G U8A U11C C12U C13U | 1.47
